Test results: publication PMC9168451

Assays:
[1] = biological target: AbMtlD Y427C_A466C double-cysteine variant (Acinetobacter baumannii)
[2] = biological target: AbMtlD H434C_Y469C double-cysteine variant (Acinetobacter baumannii)
[3] = biological target: Acinetobacter baumannii bifunctional mannitol-1-phosphate dehydrogenase/phosphatase (AbMtlD), wild type (Acinetobacter baumannii); assay: SEC-MALS

Work on “AbMtlD Y427C_A466C double-cysteine variant (from UniProt A0ABX6CFK3 1-715) (enzyme)” yielded an F6P reduction activity, kcat/Km for F6P (wild type: 2.388) [1] of 139000 M⁻¹ s⁻¹.
Substance “AbMtlD H434C_Y469C double-cysteine variant (from UniProt A0ABX6CFK3 1-715) (enzyme)” has an F6P reduction activity, kcat/Km for F6P (wild type: 2.388) [2] of 149000 M⁻¹ s⁻¹.
For “Acinetobacter baumannii bifunctional mannitol-1-phosphate dehydrogenase/phosphatase (AbMtlD), wild type (from UniProt A0ABX6CFK3 1-715) (enzyme)”, the stoichiometry N [3] was 2.
